According to patent US20090305399A1:
Where two headings read alike, the source gives them in different places. Ends that are not written are not given here.

Legend:
Assay in all cases: cell-based or functional assay
[1] = molecular target: human Kv1.3 channel (human) (UniProt P22001)
[2] = molecular target: human Kv1.1 channel (human) (UniProt Q09470)
[3] = molecular target: human Kv1.3 channel (human) (UniProt P22001); remark: listed apart in the source

Sequence of human Kv1.3 channel (human) (P22001 whole entry): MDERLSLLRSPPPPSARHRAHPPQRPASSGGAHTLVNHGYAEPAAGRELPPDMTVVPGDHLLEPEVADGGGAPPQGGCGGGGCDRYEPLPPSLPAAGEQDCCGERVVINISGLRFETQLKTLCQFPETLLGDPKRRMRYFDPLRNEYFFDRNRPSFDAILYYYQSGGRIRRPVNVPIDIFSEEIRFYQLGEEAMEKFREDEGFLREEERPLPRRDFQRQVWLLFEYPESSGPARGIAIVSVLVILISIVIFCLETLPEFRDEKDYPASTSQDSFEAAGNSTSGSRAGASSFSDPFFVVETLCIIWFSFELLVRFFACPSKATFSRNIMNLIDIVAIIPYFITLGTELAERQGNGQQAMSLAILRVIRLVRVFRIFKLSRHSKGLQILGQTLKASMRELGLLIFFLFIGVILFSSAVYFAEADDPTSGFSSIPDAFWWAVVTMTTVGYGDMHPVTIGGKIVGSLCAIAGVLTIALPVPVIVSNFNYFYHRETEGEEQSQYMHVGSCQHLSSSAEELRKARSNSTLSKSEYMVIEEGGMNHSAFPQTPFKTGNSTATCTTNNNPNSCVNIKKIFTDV
Sequence of human Kv1.1 channel (human) (Q09470 whole entry): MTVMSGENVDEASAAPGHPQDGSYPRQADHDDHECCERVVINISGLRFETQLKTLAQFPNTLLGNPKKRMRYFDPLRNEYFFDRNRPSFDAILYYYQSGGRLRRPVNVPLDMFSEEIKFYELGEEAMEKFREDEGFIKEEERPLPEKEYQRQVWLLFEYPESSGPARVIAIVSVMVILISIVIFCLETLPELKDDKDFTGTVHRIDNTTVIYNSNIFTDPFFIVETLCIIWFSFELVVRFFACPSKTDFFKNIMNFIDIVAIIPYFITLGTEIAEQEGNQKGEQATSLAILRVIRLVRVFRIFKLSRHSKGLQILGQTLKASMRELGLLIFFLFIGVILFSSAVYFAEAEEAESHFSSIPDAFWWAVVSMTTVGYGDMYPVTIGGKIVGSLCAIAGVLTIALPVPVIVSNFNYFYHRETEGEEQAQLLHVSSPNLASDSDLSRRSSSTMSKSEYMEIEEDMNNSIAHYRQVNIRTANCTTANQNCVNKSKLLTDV

Work on 20k PEG-OSK1[Ala29, 1Nal34] (peptide) yielded a WB/IFNg IC50 (human whole blood IFNg response) [1] of 0.081 nM and a WB/IL-2 IC50 (human whole blood IL-2 response) [1] of 0.049 nM.

Molecule 20k PEG-ShK (peptide) has a WB/IFNg IC50 (human whole blood IFNg response) [1] of 0.065 nM and a WB/IL-2 IC50 (human whole blood IL-2 response) [1] of 0.046 nM.

Molecule “CHO-derived Fc-L10-ShK[2-35] (Fc fusion)” has an IC50 of block of outward potassium current, whole cell patch clamp [1] of 0.115 nM.

E. coli-derived Fc-L-OSK1 (Fc fusion) gave a Kv1.3 IC50 by WCVC (nM), HEK293/Kv1.3 cells [1] of 3.2 nM.

“E. coli-derived Fc-L-ShK[1-35] (Fc fusion)” showed a Kv1.3 IC50 by WCVC (nM), HEK293/Kv1.3 cells [1] of 1.4 nM.

“E. coli-derived Fc-L-ShK[2-35] (Fc fusion)” was tested, and the Kv1.3 IC50 by IWQ (nM), CHO/Kv1.3 cells [1] was 2.8 nM and the Kv1.3 IC50 by WCVC (nM), HEK293/Kv1.3 cells [1] was 1.3 nM.

In the case of “E. coli-derived ShK[2-35]-L-Fc (Fc fusion)”, the Kv1.3 IC50 by IWQ (nM), CHO/Kv1.3 cells [1] is reported as 4.9 nM.

“E. coli-derived Shk[1-35]-L-Fc (Fc fusion)” showed a Kv1.3 IC50 by IWQ (nM), CHO/Kv1.3 cells [1] of 2.4 nM.

Molecule Fc-L5-ShK[2-35] (Fc fusion) has an IC50 of block of outward potassium current, whole cell patch clamp [1] of 0.1 nM.

With Fc-L25-ShK[2-35] (Fc fusion) the IC50, whole cell patch clamp on HEK293/Kv1.3 cells [1] was 0.15 nM.

Work on GGGGS-Osk1 (peptide) yielded a WB/IFNg IC50 (human whole blood IFNg response) [1] of 2.2 nM and a WB/IL-2 IC50 (human whole blood IL-2 response) [1] of 1.36 nM.

In the case of OSK1 (wild-type) (peptide), the Kv1.3 IC50, whole cell patch clamp ePhys [1] is reported as 0.039 nM, the Kv1.3 Selectivity (=Kv1.1/Kv.3 IC50) [1] is reported as 5 fold and the Kv1.1 IC50, whole cell patch clamp ePhys [2] is reported as 0.202 nM.

OSK1 analogue E16K, K20D (peptide) was tested, and the WB/IFNg IC50 (human whole blood IFNg response) [1] was 1.32 nM and the WB/IL-2 IC50 (human whole blood IL-2 response) [1] was 1.58 nM.

PEG-Fc-L10-OSK1, Pool # 2 (Fc fusion) showed an IC50 Sustained [1] of 0.332 nM.

For PEG-Fc-L10-OSK1, Pool # 3 (Fc fusion), the IC50 Sustained [1] was 0.256 nM.

“PEG-Fc-L10-SHK(2-35), Pool # 2 (Fc fusion)” was tested, and the IC50 Sustained [1] was 0.158 nM.

For “PEG-Fc-L10-SHK(2-35), Pool # 3 (Fc fusion)”, the IC50 Sustained [1] was 0.175 nM.

synthetic OSK1 toxin peptide was tested, and the IC50 of block of outward potassium current, whole cell patch clamp [1] was 0.039 nM.

In the case of SCIDTIPKSRCTAFQCKHSMKYRLSFCRKTCGTC (not fully specified; ends and bridges not checked) [synthetic ShK[2-35]], the IC50 of block of outward potassium current, whole cell patch clamp [3] is reported as 0.049 nM.
